Assay: soluble on expression in E. coli; label from the status in PepcDB or PDB records
With “MGSDKIHHHHHHMALNLKKLPILFLSDSTTSVAISREAKAGRIRKIGPRLYTSNTSDDPAYIIRQNWLQALTLLFPGCVVSNRTALESRVSPAGRVYVTGDYARTLELHGTKFVQVKGSPPVEGDTPLLGIFMASRARALLENLTPSRERSGGELKNLPREMIERRLAELLNVEKEDSVNRLRDQARQIAPLLGLEKEFDELDDLIGTLLRTRKATLADPVAKAHQLGTPYDPHALERVETLWSVLASMPHNYRPTNAGTGTPFYTVSFFDAYFSNYIEGTRFKVDEAKEIVDSGVIPAIRPADGHDILGTYRVVSSLENMRRTPKNPDEFIELLQSRHADIMVGRPDKRPGEFKEEVNYAGATRFVDPDLVRGTLSQGFSLYKSLEHPFARALLIMFLVAEVHPFDDGNGRAARAMMNSELITAEETRIIIPSVFRNEYVASLKRMTNHLQPESFISVMSFAQEFVSRISFDSYASARVQMEGCNAFDDPADDKRLLQPSIS” the “soluble on expression in E. coli” value was “not soluble”.
For “MNSEQADILDLLSGHTDDTTIERLAFECLLTNMTDDRVVSLMNILGWQGDFNCFAIGGVPSASLASTSLAIRKAVRDLGGEHVVIGTYGTFLLALACQMGAVTPEVTCTAVMPAFSEDEPLYLSPVRSGVAGASHALRETMFSLQAAPALSTPSRPLRADELLPERALLGDDYAREELYRNVYQVLRGENPDDPTYLTVSTFLKYGSSLENTAKELNVHPNTVRYRLKRAAETTGWDATDPRDAYVLTTALAIGRMRDR”, the “soluble on expression in E. coli” value was “soluble”.
For “KLNRAIGVIDSGVGGLTVAKELIRQLPKERIIYLGDTARCPYGPRSREEVRQFTWEMTEHLLDLNIKMLVIACNTATAVVLEEMQKQLPIPVVGVIHPGSRTALKVTNTYHVGIIGTIGTVKSGAYEEALKSINNRVMVESLACPPFVELVESGNFESEMAYEVVRETLQPLKNTDIDTLILGCTHYPILGPVIKQVMGDKVQLISSGDETAREVSTILYHSKMLNEGEEQSDHLFLTTGKIGLFKEIASKWFGQPIENVKHIHLEK”, the “soluble on expression in E. coli” value was “soluble”.
For “NKNWFVSFKGTFTYAHNEITQYDESPKYPWQSKIGVSANKNAIYIADGLFIDAADIANHQQQLGAAVIPGDIKYINISRDWYGYDDNLTDTDDWVWAKHPGVPEIVYGFGPSIKWKNLDFSFFFQGIARTSFMVKDFHPFGDSMLRNVLSWVADERWSPDNQNTNATYPRLSRKTNNNNNKLSSYWERNGAFLKLKNAEIGYTYKNMRLYISGSNLMTFAPFDLWDPEQGGGSGLSYPTQRVFNIGFQMTINNK”, the “soluble on expression in E. coli” value was “not soluble”.
In the case of “MGSDKIHHHHHHMRLDSISIANFRNHTLLEFEPGHSITNIYGRNGSGKTSILEAIHYCALTRGFSGNNDREYLKFGEELFTIRSSFTSGQGIATKVSITYSPKREKRILVNEQELQTFSSHIGTIPCVTFTPREMVIINGAPAERRRFIDTAICQYDRKYLSDLLLYRRILQQRNALLSSEQDPRVIDSALDVLTDQLVAIATEIVLVRKRFIEHFTSMLGGVYQWIPEGAEPSILYQSSLGHHENLYEKDKIQQVFRERFETLKQQELQRRQTLAGPHRDDLQFYLNKREIRKYASQGQQRAFLVAMKMTLQGYLYEASGEIPITLLDDLFSELDEVVSGTMVETLATKGQVIITSTEKKKGKGISFFSVDDYKSSKEP”, the “soluble on expression in E. coli” value is reported as “not soluble”.
With “MSLAQKISATPAAGAQMTLAQADGIAFRELSFPEALKRAEVEDKLLFVDCFTTWCGPCKRLSKVVFKDSLVADYFNRHFVNLKMDMEKGEGVELRKKYGVHAYPTLLFINSSGEVVYRLVGAEDAPELLKKVKLGVESGGLSGLKKRYEAGDRDLAFICGYINALSAANREQEAGKVAADFLQGSEQKMLEDEDYFLVFYYYVHDVNSSAFQYAVNHKKEITDKFPRQAASLDRRLLEDWIAGSYAYLKVDESNHCTFDEQGLDAYVAKMKQMNVAEADMIGESLRLSRDGIMKQWDSFVKRGDKILASHTILGDEGHLLQWVNWLNKECADMSLREKAAQWCDKACEELIKKNEEIKKNLPPGAIPAISMVDHKGQLLQVAEKLRKLMQQSEGHHHHHH” the “soluble on expression in E. coli” value was “soluble”.
In the case of “MKCVFVTVGTTSFDDLIACVSAPDSLQKIESLGYNRLILQIGRGTVVPEPFSTESFTLDVYRYKDSLKEDIQKADLVISHAGAGSCLETLEKGKPLVVVINEKLMNNHQLELAKQLHKEGHLFYCTCSTLPGLLQSMDLSTLKCYPPGQPEKFSAFLDKVVGLQK”, the “soluble on expression in E. coli” value is reported as “soluble”.
In the case of “MGSDKIHHHHHHMSVAEPNSHTQRNQPRPIRVGVIGVGNMGQHHTRVLSSMKDVELVGVSDINVERGLETASKYKVRFFEDYCDLLPHVEAVCIAVPTRLHYAVGINCLLAGIHVLIEKPIAASISEAESLVNAAAESQCILQVGHIERFNPAFRELSKVMKTEEVLALEAHRMSPYSDRANDVSVVLDLMIHDIDLLLELAASPVTKLTASGTRALDSGYLDYVTATLGFANGIVATLTASKVTHRKIRRIVAHCKNSFTEADFLKNEILIHRQTSASPVNDHRHYRQDGLIEKVYTTNIQPLSAELEHFVNCVHGGNQPSVGGEQALKALRLASLIEQMALEERVWNPLDWQSESRVQSLTQSV”, the “soluble on expression in E. coli” value is reported as “not soluble”.
With “MSLKSKEKLFIANVADSNLNEADKDKAKNEIAKLNASQVVATTLASSVRETEKQEKIETDICNENAISESKLDGIDDLEFVDENYYISPSLDTLATLSKYEIQKVENLVVGNKQYGKIEFLDPVDLSDIPLGSICDDLVVFQPMSVLLYNNSTNVPEKGKGLNVRARISCYNCYPLDKSTRKPIKDPNHRIMERYSEKLKKIPHTHFESYDPASGTYCFTVDHALEGHHHHHH” the “soluble on expression in E. coli” value was “soluble”.
In the case of “MWIVFDVDGVLIDTSESYDMATKLTVEYFLSHLGIKKEVSLEIIRDMRKKGVFSDDFELSEALILMYLSGEDLPKGEGVEYLRQKLGIVLDRKDIERVFNTFYLGEIYPNSIFKFEGLWRKEKRIVDIELLKKAKETYKLGIVTGRDSLEMKLAEEIIRFKFDKVVTRDMFEKPDPRALYEVTQGEEAIYIGDSKVDEELVERYRRTFKGNVTYLMVGRDVNDVNEALKKILFQSYIRLEHHHHHH”, the “soluble on expression in E. coli” value is reported as “soluble”.
For “MSLEKVIPVKKNNDYEIYIDDFGNMGEGIGKIDNFTVFVKDAVKGEKVRAKIIKVNKSFAIGKLIDIIEKSQDRTEPVCSIYKKCGGCQLQHLKYTEQLEFKKNKVVECLKRIGKLDLSSVRINETIGMEDPYFYRNKVQLPVGETAGEAKIGFYRERSHEIIEVDKCFIQDDSANEIILLIKRWIKEFNIEGYNEYSGKGTLRHIMIRKAFKTGQIMLVLVTNTENVPHKKELIHMITTEIQGIKGIIQNINNKKTNVILGQREITLWGESTIEDYIGEFKFNISSKSFFQVNPIQTEKLYSAALKYAGLTGKEVVFDAYCGTGTISLFLSQNAKKVYGVEIIPEAIENAKINAKQNGIENTEFIVGKSEEEIPKLIEKGIAPEVVVVDPPRKGCEKSLLHSIAEASPKTIVYVSCDPATLSRDLGILSELGYEVNEVQPVDMFPMTGHVETIVLIKRVDKEGHHHHHH”, the “soluble on expression in E. coli” value was “soluble”.
In the case of “MGSDKIHHHHHHMMTKTKADKYPQRVRNELRFRELTVLRVERAGAAFQRIVLGGEALEGFASHGFDDHTKLFFPEPGAAFTPPQVTEEGIDWGEGVRPATRDYTPLYDAERHELAYDFYIHDGGIASRWALEAKVGDKLVIGGPRGSLVVPEDYAWQLYVCDESGMPALRRRLLGLRQLPARPQVTAIVTIADASYKDYLADLDGFNIEWVVGHNPAFVAERLAQVKVPAEDYFIWLTGEGAVVKSLLARFEDESIDQQLVRSQAYWHSK”, the “soluble on expression in E. coli” value is reported as “not soluble”.
In the case of “MGSDKIHHHHHHMKALVVGACTRPVVNSLKKLNFEVYSVSHYNPVDLNADHKKYTINDKFHGHLADKYSEKELLNLSKEYVDLVDYIFVCSGIFESKTSKTPNWDVVGNSPKRIKNISDKYKTVKKLENLGFNVPVTYLVNNKYQFEKCLSELKSVVVKPISGSGGIGVTNIDFQNTDNLDINYPVLVQERIKSESYSASFIGSNFLCFNKQLINNNIYVGNISPYVLNLKNETIQEFEEVIASLDLLGMNGIDFMLKDGIPYIIEVNPRILGTYETIELSSRYNLSKAILENKPVKPKDCFFKKIVFSDKGSSYSIDKNPFLRDIPQKGTYIEEGEPVVTIIGRNMADVREMECGILRGV”, the “soluble on expression in E. coli” value is reported as “not soluble”.
With “MAAKLQKWRNLAGRLDLMNRSGAVSTRRFLHEGPDTVEELLERHLAKKEKPIIDHDEAEFLNRRRLTSTRREALSLYRDILRATRFFTWIDSRGNLWRDVLRENARKEFEAARFETDPEVITRLLIGGSDAVSSALDKLAEKQREMIEKQRRGDQR” the “soluble on expression in E. coli” value was “soluble”.
For “MDSENAVKTTYGEFNGKKPFAVMLLGTDTGALDRTEKRGNTDTIIVVVVNPKKKNYTMISIPRDTMADMVGDDSNDVQKINAAYSIGGAKMAMKTVSNLLNIPVKYYALVNMGGLMKLVDYVGGIYVTPPLTFTYSGFPFKKRVRQHLNGQAALAYSRMRYDDPQGDYGRQKRQREVITKLVQKLATADSLTNFSKIANNLSSNVKTNLSFQALKSILANYSDCTSSSDSDYLHGYSTYVNDAAYQIAPTSELQRISNKIRKLLGLKTATVSNRETELNTLNETAGFKFGSGETQNYTLEHHHHHH”, the “soluble on expression in E. coli” value was “soluble”.
With “MKLLKTKNCLYYRNGDNKLSEYQLLTQFNPAFINKKIKMCEFQIESMYHMSASTTTCDEIMGVVSVSYPIEKLVIKIIETKAGLQNYKNRSINNMALLKKVLNHYTEKEQKQVVKYMRSNGRYKPYNVIERLQVDLYQASIKQRSERQKQRNTAIENSKIARVNAYHQSSYVKVV” the “soluble on expression in E. coli” value was “not soluble”.
In the case of “MDAYRYWSREAIRADIDTRRHCLHIAIENFENDANIGTVVRTANAFAVDTVHIVGRKRWNRRGAMVTDRYQHLMHHPTTADVVAWAKQQGLTIVAIDNTPGCVPLETAELPERCLLLFGQEGPGVTQEAQDNARMTCSIAQFGSTRSINAGVAAGIAMHAWIRQHADLDNAW”, the “soluble on expression in E. coli” value is reported as “not soluble”.

— the DeepSol protein solubility set
